Source: patent publication US20050265970A1 (UNIVERSITY OF CHICAGO, published 2005)

Key:
[1] = target: T1, HA-GCKR (full-length human, in 293 cells) (human, UniProt Q9Y4K4 1-846); assay: combined immunoprecipitation and Western blot, 293 cells
T1 construct: not shown: HA tag

[2] = target: T2, HA-GCK (full-length human, in 293 cells) (human, UniProt Q12851 1-820); assay: as above
T2 construct: not shown: HA tag
T2 sequence (looked up): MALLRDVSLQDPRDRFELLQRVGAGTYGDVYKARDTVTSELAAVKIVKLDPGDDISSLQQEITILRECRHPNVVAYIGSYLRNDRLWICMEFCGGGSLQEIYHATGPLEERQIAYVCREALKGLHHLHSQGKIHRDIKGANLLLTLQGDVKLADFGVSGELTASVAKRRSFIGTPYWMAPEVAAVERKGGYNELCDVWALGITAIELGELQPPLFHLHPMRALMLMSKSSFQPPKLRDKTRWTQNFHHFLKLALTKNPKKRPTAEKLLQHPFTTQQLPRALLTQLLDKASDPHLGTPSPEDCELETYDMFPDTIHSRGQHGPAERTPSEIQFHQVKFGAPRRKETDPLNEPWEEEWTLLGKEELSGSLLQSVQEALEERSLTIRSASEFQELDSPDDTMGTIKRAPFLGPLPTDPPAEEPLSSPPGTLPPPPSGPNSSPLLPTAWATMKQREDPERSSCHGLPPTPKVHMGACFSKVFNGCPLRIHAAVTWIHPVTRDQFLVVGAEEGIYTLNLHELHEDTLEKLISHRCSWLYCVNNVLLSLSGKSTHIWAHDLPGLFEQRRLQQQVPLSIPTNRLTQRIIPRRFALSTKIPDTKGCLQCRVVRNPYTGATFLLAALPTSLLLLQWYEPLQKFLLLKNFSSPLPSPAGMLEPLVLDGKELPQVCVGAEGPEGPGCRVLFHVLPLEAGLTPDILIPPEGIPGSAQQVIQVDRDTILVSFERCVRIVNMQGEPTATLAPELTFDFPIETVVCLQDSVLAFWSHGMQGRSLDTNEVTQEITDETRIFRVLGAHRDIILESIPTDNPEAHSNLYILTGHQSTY

[3] = target: T3, HA-ASK1 (full-length human, in 293 cells) (human, UniProt Q99683 1-1374); assay: co-IP from 293 cells, anti-FLAG beads, anti-HA Western blot
T3 construct: not shown: HA tag
T3 sequence (looked up): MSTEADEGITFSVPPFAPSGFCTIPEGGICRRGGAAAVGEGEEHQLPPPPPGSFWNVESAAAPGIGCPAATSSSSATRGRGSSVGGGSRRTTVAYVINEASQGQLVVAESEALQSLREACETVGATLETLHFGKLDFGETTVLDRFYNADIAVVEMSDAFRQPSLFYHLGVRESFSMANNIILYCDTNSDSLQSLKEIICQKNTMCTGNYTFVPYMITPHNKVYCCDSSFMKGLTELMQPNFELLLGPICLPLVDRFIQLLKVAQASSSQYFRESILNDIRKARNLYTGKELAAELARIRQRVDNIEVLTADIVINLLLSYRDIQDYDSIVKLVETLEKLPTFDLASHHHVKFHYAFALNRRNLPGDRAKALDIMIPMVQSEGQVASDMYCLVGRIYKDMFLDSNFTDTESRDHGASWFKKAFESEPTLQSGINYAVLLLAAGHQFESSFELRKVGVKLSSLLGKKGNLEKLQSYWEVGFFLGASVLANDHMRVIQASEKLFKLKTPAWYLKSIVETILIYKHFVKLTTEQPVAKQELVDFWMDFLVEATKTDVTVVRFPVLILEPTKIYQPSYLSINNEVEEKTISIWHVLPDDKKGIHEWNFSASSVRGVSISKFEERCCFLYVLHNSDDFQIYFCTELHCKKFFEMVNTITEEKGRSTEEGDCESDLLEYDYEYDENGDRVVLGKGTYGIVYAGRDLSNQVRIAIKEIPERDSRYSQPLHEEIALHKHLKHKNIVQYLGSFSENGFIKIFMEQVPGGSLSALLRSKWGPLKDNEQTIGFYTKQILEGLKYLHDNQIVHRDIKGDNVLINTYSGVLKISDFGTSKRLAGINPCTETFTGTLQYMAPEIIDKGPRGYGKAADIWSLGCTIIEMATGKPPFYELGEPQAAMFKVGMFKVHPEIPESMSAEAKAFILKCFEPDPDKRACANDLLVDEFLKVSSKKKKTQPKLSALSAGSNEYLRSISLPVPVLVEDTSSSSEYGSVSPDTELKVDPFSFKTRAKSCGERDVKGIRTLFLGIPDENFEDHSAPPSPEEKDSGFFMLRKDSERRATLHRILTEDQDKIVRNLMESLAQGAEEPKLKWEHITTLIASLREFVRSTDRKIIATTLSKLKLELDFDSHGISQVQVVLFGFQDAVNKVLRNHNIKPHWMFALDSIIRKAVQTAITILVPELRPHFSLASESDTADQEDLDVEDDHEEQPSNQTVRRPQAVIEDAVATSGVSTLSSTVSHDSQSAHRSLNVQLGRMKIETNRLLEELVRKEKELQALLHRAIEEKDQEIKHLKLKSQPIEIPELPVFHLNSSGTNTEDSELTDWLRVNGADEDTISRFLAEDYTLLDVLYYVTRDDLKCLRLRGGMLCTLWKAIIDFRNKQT

[4] = target: T4, HA-MEKK3 (full-length human, in 293 cells) (human, UniProt Q99759 1-626, limits assumed); assay: as above
T4 construct: not shown: HA tag
T4 sequence (looked up): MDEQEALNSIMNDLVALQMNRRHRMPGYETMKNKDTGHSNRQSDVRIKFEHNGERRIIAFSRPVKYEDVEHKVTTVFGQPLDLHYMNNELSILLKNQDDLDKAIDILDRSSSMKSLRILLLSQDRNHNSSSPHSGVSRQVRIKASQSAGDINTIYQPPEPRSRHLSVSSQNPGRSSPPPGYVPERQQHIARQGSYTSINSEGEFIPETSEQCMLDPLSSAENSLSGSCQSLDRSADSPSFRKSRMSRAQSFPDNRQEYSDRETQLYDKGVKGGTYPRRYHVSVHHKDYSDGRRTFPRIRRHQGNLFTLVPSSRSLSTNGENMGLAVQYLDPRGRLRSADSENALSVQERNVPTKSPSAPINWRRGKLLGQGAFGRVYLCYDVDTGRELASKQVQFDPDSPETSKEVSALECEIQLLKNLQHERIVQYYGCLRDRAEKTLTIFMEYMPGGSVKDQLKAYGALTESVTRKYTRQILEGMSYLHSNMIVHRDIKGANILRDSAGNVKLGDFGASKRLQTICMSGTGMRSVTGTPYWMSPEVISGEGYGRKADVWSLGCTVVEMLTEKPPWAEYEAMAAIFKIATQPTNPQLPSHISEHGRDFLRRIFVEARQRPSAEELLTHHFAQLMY

[5] = target: T5, HA-MEKK1 (full-length human, in 293 cells) (human, UniProt Q13233 1-1512, limits assumed); assay: as above
T5 construct: not shown: HA tag

[6] = target: T6, HA-MEKK4 (full-length murine, in 293 cells) (murine, UniProt O08648 1-1597, limits assumed); assay: co-IP from 293 cells
T6 construct: also called MEKK4/MTK1; not shown: HA tag
T6 sequence (O08648 whole entry): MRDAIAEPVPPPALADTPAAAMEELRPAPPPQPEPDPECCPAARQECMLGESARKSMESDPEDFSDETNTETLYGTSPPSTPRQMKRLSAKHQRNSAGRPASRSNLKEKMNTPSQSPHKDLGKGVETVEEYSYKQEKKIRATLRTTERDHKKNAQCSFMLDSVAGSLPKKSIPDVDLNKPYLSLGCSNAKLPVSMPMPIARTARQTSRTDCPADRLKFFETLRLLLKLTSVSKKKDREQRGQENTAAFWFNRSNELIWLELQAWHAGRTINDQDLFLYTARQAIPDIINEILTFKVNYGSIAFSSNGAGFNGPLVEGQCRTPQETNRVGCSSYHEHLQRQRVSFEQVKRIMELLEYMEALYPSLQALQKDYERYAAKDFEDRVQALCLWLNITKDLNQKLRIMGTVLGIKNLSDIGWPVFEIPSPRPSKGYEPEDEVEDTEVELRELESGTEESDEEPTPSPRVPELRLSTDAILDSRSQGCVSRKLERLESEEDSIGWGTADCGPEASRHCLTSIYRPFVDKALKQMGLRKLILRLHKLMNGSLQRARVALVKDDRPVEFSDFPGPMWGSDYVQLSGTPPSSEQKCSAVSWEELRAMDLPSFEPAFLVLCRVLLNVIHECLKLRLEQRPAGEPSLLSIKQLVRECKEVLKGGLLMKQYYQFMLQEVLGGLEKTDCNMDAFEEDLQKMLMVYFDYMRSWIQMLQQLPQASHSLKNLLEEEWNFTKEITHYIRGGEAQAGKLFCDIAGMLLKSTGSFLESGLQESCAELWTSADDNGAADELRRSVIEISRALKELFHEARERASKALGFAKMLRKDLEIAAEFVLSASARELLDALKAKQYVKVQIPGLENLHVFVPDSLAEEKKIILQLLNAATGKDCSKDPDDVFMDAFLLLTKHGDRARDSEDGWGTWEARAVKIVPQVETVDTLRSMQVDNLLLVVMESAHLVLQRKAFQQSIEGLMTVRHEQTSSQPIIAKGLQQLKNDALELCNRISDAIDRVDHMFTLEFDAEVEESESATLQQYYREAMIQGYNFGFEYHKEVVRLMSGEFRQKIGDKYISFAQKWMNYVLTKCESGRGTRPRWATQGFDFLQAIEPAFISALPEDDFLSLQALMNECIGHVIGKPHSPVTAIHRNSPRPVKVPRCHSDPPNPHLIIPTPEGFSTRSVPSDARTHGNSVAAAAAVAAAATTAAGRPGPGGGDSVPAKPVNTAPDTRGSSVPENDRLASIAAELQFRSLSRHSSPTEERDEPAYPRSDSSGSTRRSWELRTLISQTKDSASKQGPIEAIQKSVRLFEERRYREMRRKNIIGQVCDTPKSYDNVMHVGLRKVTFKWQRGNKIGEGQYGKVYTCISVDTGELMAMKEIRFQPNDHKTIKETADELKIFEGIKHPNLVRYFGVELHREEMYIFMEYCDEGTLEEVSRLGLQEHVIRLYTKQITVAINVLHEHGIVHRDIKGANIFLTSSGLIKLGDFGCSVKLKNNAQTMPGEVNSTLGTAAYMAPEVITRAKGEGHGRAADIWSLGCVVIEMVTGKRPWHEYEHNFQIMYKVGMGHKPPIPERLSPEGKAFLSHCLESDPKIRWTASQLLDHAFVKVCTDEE

T1 sequence (Q9Y4K4 whole entry): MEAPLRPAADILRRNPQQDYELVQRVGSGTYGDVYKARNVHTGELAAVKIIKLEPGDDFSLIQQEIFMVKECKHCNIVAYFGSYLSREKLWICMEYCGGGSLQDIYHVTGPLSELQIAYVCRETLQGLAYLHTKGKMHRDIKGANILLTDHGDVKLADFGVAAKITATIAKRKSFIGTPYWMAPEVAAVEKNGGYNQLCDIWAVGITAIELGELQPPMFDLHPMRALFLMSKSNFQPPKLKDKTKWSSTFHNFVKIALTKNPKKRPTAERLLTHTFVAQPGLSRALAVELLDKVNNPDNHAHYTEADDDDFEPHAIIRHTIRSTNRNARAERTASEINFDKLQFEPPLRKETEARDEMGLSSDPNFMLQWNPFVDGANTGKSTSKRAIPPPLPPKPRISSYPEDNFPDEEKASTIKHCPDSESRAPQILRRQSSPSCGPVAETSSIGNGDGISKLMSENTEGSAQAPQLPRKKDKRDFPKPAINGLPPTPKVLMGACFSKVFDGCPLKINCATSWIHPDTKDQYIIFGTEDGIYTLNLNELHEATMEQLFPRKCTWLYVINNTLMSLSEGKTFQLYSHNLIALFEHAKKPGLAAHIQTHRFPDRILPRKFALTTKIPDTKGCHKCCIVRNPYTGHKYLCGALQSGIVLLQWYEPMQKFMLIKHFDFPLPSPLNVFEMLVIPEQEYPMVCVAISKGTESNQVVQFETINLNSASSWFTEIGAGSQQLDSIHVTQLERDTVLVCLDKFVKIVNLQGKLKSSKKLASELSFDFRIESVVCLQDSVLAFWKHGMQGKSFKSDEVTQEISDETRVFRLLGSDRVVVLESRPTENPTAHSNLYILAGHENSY
T5 sequence (Q13233 whole entry): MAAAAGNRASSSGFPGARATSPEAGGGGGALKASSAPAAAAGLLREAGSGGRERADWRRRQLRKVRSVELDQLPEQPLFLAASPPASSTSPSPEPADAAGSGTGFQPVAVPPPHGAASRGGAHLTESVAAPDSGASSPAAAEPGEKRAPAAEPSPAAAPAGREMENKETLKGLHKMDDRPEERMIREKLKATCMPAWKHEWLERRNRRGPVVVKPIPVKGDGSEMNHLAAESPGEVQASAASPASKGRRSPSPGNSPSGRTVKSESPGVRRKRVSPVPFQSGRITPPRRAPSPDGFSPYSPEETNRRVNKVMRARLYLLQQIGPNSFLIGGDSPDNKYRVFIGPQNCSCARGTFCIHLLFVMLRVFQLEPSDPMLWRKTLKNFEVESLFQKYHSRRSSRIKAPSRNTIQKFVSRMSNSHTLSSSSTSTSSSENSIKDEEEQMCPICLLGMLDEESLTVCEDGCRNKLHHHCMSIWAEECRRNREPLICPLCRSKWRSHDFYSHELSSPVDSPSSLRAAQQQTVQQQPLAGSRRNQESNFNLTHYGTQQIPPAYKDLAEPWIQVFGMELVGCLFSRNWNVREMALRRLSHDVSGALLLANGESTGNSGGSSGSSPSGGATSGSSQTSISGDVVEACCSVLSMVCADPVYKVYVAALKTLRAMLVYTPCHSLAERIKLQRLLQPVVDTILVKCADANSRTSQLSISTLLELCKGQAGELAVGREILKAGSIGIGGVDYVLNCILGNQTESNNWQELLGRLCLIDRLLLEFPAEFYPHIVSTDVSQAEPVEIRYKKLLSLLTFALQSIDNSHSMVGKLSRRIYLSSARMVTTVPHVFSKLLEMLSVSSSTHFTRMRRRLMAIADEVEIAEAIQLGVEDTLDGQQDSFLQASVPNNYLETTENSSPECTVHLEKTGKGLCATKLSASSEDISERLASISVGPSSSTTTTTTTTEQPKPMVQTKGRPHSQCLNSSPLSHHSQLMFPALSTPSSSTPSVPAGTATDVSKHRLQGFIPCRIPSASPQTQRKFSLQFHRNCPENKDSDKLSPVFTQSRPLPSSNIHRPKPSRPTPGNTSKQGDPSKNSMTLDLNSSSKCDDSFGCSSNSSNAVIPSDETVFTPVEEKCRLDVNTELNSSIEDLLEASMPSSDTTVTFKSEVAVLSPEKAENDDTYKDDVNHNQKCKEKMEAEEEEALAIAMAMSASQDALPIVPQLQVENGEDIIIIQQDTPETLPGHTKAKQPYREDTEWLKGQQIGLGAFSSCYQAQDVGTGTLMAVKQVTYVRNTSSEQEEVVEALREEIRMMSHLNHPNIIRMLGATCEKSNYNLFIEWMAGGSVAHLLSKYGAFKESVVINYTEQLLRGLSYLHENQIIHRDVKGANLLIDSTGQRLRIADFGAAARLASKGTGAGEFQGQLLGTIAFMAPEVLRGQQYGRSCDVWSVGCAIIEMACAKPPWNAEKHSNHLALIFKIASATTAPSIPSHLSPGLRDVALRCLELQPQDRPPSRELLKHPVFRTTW

B1: FLAG-Gadd45β (full-length murine Gadd45β, pcDNA-FLAG-Gadd45β, expressed in 293 cells) (other, UniProt P22339 1-160, looked up)
chain: MTLEELVASDNAVQKMQAVTAAVEQLLVAAQRQDRLTVGVYEAAKLMNVDPDSVVLCLLAIDEEEEDDIALQIHFTLIQSFCCDNDIDIVRVSGMQRLAQLLGEPAETLGTTEARDLHCLLVTNCHTDSWKSQGLVEVASYCEESRGNNQWVPYISLEER
notes: range 1-160; Co-expressed with HA-tagged kinases in 293 cells for co-immunoprecipitation; not shown: FLAG tag
binding result [1]: no binding
binding result [2]: no binding
binding result [3]: binds
binding result [4]: no binding
binding result [5]: no binding
binding result [6]: binds
